How the values were obtained:
Test in all cases: Kd (EC50 corrected by depletion factor)
PATL1 = target: T1, PATL1 (UniProt Q86TB9)
T1 sequence: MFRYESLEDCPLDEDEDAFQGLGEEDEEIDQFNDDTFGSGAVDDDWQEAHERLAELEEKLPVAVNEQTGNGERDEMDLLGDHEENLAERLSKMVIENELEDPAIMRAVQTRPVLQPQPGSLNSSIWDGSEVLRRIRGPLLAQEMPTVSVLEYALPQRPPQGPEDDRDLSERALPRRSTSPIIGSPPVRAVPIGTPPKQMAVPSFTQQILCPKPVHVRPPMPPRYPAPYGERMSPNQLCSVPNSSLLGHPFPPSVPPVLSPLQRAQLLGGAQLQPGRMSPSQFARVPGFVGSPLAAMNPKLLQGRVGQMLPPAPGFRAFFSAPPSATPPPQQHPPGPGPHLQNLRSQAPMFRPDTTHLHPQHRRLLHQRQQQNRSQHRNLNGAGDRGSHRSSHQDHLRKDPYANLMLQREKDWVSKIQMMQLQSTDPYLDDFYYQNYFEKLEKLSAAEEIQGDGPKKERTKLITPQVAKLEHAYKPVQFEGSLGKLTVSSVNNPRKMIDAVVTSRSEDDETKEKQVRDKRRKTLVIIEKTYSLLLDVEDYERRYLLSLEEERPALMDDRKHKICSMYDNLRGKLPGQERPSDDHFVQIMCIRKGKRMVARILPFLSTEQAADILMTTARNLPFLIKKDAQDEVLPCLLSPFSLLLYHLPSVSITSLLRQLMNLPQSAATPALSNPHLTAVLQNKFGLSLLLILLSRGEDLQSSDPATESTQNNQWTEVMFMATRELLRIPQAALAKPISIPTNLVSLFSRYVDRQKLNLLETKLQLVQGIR
Method in brief: (§1)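 To obtain EC50, data were fitted with a four-parameter log-logistic model; Kd was then EC50 multiplied by a protein-dependent depletion factor. Beforehand, free RNA oligos (0 nM to 30 μM) were pre-incubated with HEK293-FT lysate (2.5 mg protein/well) for 1 h at 4°C. The lysate then spent 30 min at 4°C with the same 5′-amino-C6 oligos coupled to NHS-Sepharose beads, and bound proteins were quantified by label-free LC-MS/MS, normalised to the control.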

MRPS9 = MRPS9 (UniProt P82933)
Method in brief: as §1

AGO1 = AGO1 (UniProt Q9UL18)
Method in brief: as §1

P4HA2 = P4HA2 (UniProt O15460)
Method in brief: as §1

SRSF7 = target: T2, SRSF7 (UniProt Q16629)
T2 sequence: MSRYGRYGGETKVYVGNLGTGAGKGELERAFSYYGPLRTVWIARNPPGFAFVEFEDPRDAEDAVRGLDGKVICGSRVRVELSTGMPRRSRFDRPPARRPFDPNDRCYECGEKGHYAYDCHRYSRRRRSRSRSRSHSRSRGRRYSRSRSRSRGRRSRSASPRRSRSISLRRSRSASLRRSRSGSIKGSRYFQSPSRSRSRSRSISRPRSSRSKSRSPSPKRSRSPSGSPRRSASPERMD
Method in brief: as §1

MRPL22 = MRPL22 (UniProt Q9NWU5)
Method in brief: as §1

SRSF6 = SRSF6 (UniProt Q13247)
Method in brief: as §1

RPS18 = RPS18 (UniProt P62269)
Method in brief: as §1

PCBP1 = PCBP1 (UniProt Q15365)
Method in brief: as §1

MRPL13 = MRPL13 (UniProt Q9BYD1)
Method in brief: as §1

SRSF6, sequence (Q13247 whole entry, looked up): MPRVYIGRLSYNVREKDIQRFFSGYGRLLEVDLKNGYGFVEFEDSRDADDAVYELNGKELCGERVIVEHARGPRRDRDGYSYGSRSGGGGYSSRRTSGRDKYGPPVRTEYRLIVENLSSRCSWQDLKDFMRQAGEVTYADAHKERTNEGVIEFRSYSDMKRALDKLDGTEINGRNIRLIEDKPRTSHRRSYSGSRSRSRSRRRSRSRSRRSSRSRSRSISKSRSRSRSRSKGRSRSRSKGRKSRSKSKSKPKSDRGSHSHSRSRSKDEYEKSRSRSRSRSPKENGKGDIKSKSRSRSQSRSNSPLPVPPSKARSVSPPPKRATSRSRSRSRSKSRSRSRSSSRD
P4HA2, sequence (O15460 whole entry): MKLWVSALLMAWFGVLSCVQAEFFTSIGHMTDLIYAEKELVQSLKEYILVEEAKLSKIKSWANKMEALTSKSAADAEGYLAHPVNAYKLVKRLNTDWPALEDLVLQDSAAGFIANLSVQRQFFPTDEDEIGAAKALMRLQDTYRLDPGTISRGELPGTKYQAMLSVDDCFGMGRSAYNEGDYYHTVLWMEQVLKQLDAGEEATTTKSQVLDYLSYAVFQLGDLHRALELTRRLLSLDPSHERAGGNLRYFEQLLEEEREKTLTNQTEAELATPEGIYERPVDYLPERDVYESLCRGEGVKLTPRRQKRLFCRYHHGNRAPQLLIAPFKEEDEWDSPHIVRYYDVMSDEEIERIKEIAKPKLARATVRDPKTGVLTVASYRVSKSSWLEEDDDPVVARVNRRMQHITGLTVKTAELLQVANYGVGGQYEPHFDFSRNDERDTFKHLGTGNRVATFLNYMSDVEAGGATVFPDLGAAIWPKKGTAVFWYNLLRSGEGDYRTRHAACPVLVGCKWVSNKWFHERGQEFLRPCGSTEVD
PCBP1, sequence (Q15365 whole entry): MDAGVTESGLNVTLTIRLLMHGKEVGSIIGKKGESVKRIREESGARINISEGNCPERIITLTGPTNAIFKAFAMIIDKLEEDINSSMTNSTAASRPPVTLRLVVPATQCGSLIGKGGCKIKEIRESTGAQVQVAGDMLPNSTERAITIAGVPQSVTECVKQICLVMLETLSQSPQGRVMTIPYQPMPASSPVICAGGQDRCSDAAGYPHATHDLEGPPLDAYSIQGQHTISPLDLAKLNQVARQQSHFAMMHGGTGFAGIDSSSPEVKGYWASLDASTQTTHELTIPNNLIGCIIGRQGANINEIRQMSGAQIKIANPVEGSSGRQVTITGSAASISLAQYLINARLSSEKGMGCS

Q: With UAUUUAU as the sequence, how does the Kd (PATL1) read?
A: 258 nM

Q: What about the Kd (MRPS9) of the same sequence?
A: 27.1 nM

Q: Which Kd (AGO1) does the source give for AAUAAA here?
A: 78.7 nM

Q: What about the Kd (P4HA2) of the same sequence?
A: 37.5 nM

Q: For CUGUCCU, which Kd (SRSF7) is on record?
A: 1000 nM

Q: What about the Kd (MRPL22) of the same sequence?
A: 67.4 nM

Q: And the Kd (SRSF6)?
A: 287 nM

Q: And the Kd (RPS18)?
A: 42.6 nM

Q: And the Kd (PCBP1)?
A: 1560 nM

Q: And the Kd (MRPL13)?
A: 78.4 nM
